# T1: TBK1 (Homo sapiens, UniProt Q9UHD2)
# T1 sequence (Q9UHD2 1-729): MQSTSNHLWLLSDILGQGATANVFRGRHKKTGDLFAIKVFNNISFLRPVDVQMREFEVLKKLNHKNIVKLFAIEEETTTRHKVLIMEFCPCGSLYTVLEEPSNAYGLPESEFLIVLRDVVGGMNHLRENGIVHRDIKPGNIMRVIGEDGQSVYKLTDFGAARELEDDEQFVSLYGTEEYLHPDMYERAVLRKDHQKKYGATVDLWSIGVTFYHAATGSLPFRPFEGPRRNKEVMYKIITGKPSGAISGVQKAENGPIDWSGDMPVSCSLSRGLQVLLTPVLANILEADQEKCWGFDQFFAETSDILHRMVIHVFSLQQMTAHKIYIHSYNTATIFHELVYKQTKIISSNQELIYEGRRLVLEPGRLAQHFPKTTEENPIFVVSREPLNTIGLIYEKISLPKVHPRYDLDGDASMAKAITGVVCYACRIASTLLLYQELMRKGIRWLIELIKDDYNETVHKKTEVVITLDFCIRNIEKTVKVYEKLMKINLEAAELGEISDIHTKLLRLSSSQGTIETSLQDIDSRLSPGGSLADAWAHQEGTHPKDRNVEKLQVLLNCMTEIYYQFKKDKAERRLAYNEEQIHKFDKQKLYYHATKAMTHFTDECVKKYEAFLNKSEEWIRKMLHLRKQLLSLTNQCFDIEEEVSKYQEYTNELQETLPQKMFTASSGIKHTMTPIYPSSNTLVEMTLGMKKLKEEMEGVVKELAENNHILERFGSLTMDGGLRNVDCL
# B1: WT TRAF2 (protein)
# chain: MAAASVTPPGSLELLQPGFSKTLLGTKLEAKYLCSACRNVLRRPFQAQCGHRYCSFCLASILSSGPQNCAACVHEGIYEEGISILESSSAFPDNAARREVESLPAVCPSDGCTWKGTLKEYESCHEGRCPLMLTECPACKGLVRLGEKERHLEHECPERSLSCRHCRAPCCGADVKAHHEVCPKFPLTCDGCGKKKIPREKFQDHVKTCGKCRVPCRFHAIGCLETVEGEKQQEHEVQWLREHLAMLLSSVLEAKPLLGDQSHAGSELLQGCESLEKKTATFENIVCVLNREVERVAMTAEACSRQHRLDQDKIEAPSSKVQQLERSIGLKDLAMADLEQKVSEMEASTYDGVFIWKISDFARKRQEAVAGRIPAIFSPAFYTRRYGYKMCLRIYLNGDGTGRGTHLSLFFVVMKGPNDALLRWPFNQKVTLMLLDQNNREHVIDAFRPDVTSSSFQRPVNDMNIASGCPLFCPVSKMEAKDSYVRDDAIFIKAIVDLTGL
# modifications: left off: small tags and cut ends
# B2: WT ICOS (protein)
# chain: EINGSANYEMFIFHNGGVQILCKYPDIVQQFKMQLLKGGQILCDLTKTKGSGNTVSIKSLKFCHSQLSNNSVSFFLYNLDHSHANYYFCNLSIFDPPPFKVTLTGGYLHIYESQLCCQLKFWLPIGCAAFVVVCILGCILICWLTKKKYSSSVHDPNGEYMFMRAVNTAKKSRLTDVTL
# B3: TRAF3 (protein, UniProt Q13114 1-568, looked up)
# TNF receptor-associated …: MESSKKMDSPGALQTNPPLKLHTDRSAGTPVFVPEQGGYKEKFVKTVEDKYKCEKCHLVLCSPKQTECGHRFCESCMAALLSSSSPKCTACQESIVKDKVFKDNCCKREILALQIYCRNESRGCAEQLMLGHLLVHLKNDCHFEELPCVRPDCKEKVLRKDLRDHVEKACKYREATCSHCKSQVPMIALQKHEDTDCPCVVVSCPHKCSVQTLLRSELSAHLSECVNAPSTCSFKRYGCVFQGTNQQIKAHEASSAVQHVNLLKEWSNSLEKKVSLLQNESVEKNKSIQSLHNQICSFEIEIERQKEMLRNNESKILHLQRVIDSQAEKLKELDKEIRPFRQNWEEADSMKSSVESLQNRVTELESVDKSAGQVARNTGLLESQLSRHDQMLSVHDIRLADMDLRFQVLETASYNGVLIWKIRDYKRRKQEAVMGKTLSLYSQPFYTGYFGYKMCARVYLNGDGMGKGTHLSLFFVIMRGEYDALLPWPFKQKVTLMLMDQGSSRRHLGDAFKPDPNSSSFKKPTGEMNIASGCPVFVAQTVLENGTYIKDDTIFIKVIVDTSDLPDP
# Tests used:
# Tbk1 transcript = assay: In vivo knockdown efficiency by quantitative PCR in sorted transduced cells; set-up: species or system mouse; details: sorted shTbk1+CD4+ T cells
# Experimental: Isolation of mRNA, cDNA synthesis and real-time PCR. Total RNA was extracted from sorted CD4^+ Ametrine- and CD4^+ Ametrine^+ cells using the RNeasy kit (Qiagen). RNA was used to synthesize cDNA by the SuperScript III FirstStrand cDNA synthesis kit (Life Technologies). […]; Relative gene expression levels were determined in triplicates, calculated using the 2-° Act method and normalized to the level of ACTB.
# TBK1 [1] = target: T1, TBK1; assay: Anti-FLAG immunoprecipitation of WT or mutated TRAF2/TRAF3 in HEK293T cells; format: binding; set-up: endogenous in cells; details: FLAG-tagged TRAF in HEK293T cells
# Experimental: (§1) Immunoprecipitation and immunoblotting. The human leukemic Jurkat T cell line, JTAg, was previously described (Li, J et al. J Immunol 2013, 191(1): 200-207; Rolf J et al., J Immunol 2010, 185(7): 4042-4052) and the HEK 293T cell line was obtained from ATCC. These cell lines have not been recently STR profiled but tested negative for mycoplasma contamination. JTAg cells in logarithmic growth phase were transfected with plasmid DNAs by electroporation and incubated for 24 hours. Transfection of HEK293T cells was carried out via liposomes-mediated transfection with plasmid DNAs. For experiments using primary mouse T cells, purified CD4+ T cells were activated in vitro with anti-mouse CD3 (clone 145-2C11) and CD28 (clone 37.51) for 48 hours prior to resting in the presence of IL-2 for another 48 hours. Transfected JTAg cells and preactivated mouse CD4^+ T cells were stimulated with anti-CD3 and anti-ICOS (clone C398.4A) monoclonal antibodies (mAbs) in the presence of a cross-linking antibody (Ab) for 2 minutes. […] The intensity of bands was measured using the ImageJ software (NIH). To determine the ratio of TBK1 to p85a, the band intensity on IP blots and WCL blots were measured for TBK1 and p85a, respectively, and the ratio was expressed as (IP TBK1)/(WCL TBK1): (IP p85a)/(WCL p85a).
# [2] = tested on: GC B cells and plasma cells; format: in vivo, mouse; details: KLH-gp61 in alum, 10 d
# TBK1 [3] = target: T1, TBK1; assay: ICOS immunoprecipitation and immunoblotting in transfected Jurkat (JTAg) T cells; format: binding; set-up: endogenous in cells; host or cells: Jurkat JTAg T cells transfected with ICOS plasmids; details: Jurkat (JTAg) cells stimulated with anti-CD3 plus -ICOS mAbs
# Experimental: as §1
# Tfh cells = details: mouse, in vivo
molecule,measurement,setting,value
shTbk1 (guide AAGACATAAAGTGCTTATTATG; expressed or natural sequence),Tbk1 transcript reduced,Tbk1 transcript,~80%
B1,interaction with TBK1,TBK1 [1],interacted strongly
B2,B cell differentiation (Fas+GL7+ GC B cells and class-switched IgD-CD138+ plasma cells),[2],supported the differentiation
same,interaction with endogenous TBK1 in ICOS IPs,TBK1 [3],interacted strongly
same,CXCR5+SLAMlo Tfh cell population,Tfh cells,differentiated
same,differentiation of CXCR5+PD1hi GC Tfh cells,Tfh cells,restored
same,nascent CXCR5+Bcl6+ Tfh cells,Tfh cells,able to differentiate
B3,interaction with TBK1,TBK1 [1],interacted strongly

# — patent US11547739B2, “Peptides and methods related to ICOS signaling” (priority 2015, dated 2023)
